# Results: patent US20170306033A1 (Amgen, published 2017)
# Residue numbers refer to the chain shown, from its start.
# T1: human PAC1 receptor (human, UniProt P41586 21-468)
# T1 sequence: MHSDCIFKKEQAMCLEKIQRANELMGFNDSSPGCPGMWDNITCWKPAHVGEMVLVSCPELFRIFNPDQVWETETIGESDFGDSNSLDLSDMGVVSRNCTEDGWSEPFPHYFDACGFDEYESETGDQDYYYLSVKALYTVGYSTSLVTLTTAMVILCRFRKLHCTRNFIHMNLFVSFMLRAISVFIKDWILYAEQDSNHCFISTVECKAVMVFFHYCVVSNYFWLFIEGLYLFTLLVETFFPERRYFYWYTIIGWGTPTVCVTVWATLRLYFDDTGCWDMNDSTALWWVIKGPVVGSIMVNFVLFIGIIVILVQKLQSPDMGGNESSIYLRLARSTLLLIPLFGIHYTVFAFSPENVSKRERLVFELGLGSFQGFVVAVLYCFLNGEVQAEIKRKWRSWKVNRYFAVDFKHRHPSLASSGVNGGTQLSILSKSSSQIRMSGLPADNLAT
# B1: iPS:327681 (bispecific antibody, human IgG1, kappa, N297G)
# light 1: DIQMTQSPSSLSASVGDRITITCRASQSISRYLNWYQQKPGKAPKLLIYAASSLQSGIPSRFSGSGSGTDFTLTINSLQPEDFATYFCQQSYSPPFTFGEGTKVDIKRTVAAPSVFIFPPSDEQLKSGTASVVCLLNNFYPREAKVQWKVDNALQSGNSQESVTEQDSKDSTYSLESTLTLSKADYEKHKVYACEVTHQGLSSPVTKSFNRGEC
# heavy 1: not shown
# light 2: EIVLTQSPGTLSLSPGERATLSCRASQSVSSGYLTWYQQKPGQAPRLLIYGASSRATGIPDRFSGSGSGTDFTLTISRLEPEDFAVYYCQQYGNSLSRFGKGTKLEIKRTVAAPSVFIFPPSDEQLKSGTASVVCLLNNFYPREAKVQWKVDNALQSGNSQESVTEQDSKDSTYSLKSTLTLSKADYEKHKVYACEVTHQGLSSPVTKSFNRGEC
# heavy 2: QVQLVESGGGVVQPGRSLRLSCAASGFTFSSYGMHWVRQAPGKELEWVAVIWYDGSNKYYAESVKGRFIISRDKSKNTLYLQMNSLRAEDTAVYYCARAGGIAAAGLYYYYGMDVWGQGTTVTVSSASTKGPSVFPLAPSSKSTSGGTAALGCLVKDYFPEPVTVSWNSGALTSGVHTFPAVLQSSGLYSLESVVTVPSSSLGTQTYICNVNHKPSNTKVDKKVEPKSCDKTHTCPPCPAPELLGGPSVFLFPPKPKDTLMISRTPEVTCVVVDVSHEDPEVKFNWYVDGVEVHNAKTKPCEEQYGSTYRCVSVLTVLHQDWLNGKEYKCKVSNKALPAPIEKTISKAKGQPREPQVYTLPPSRKEMTKNQVSLTCLVKGFYPSDIAVEWESNGQPENNYKTTPPVLKSDGSFFLYSKLTVDKSRWQQGNVFSCSVMHEALHNHYTQKSLSLSPGK
# B2: iPS:327686 (bispecific antibody, human IgG1, kappa, N297G)
# light 1: not shown
# heavy 1: not shown
# light 2: B1 light 2 with K101Q
# heavy 2: not shown
# B3: iPS:327682 (bispecific antibody, human IgG1, kappa, N297G)
# light 1: not shown
# heavy 1: not shown
# light 2: B1 light 2
# heavy 2: B1 heavy 2
# B4: iPS:327684 (bispecific antibody, human IgG1, kappa, N297G)
# light 1: EIVLTQSPATLSLSPGERATLSCRASQSVGRSLHWYQQKPGQAPRLLIKYASQSLSGIPARFSGSGSGTDFTLTISSLEPEDFAVYYCHQSSRLPFTFGEGTKVDIKRTVAAPSVFIFPPSDEQLKSGTASVVCLLNNFYPREAKVQWKVDNALQSGNSQESVTEQDSKDSTYSLESTLTLSKADYEKHKVYACEVTHQGLSSPVTKSFNRGEC
# heavy 1: not shown
# light 2: B1 light 2
# heavy 2: B1 heavy 2
# B5: iPS:327683 (bispecific antibody, human IgG1, kappa, N297G)
# light 1: DIQLTQSPSFLSASVGDRVTITCRASQSIGRSLHWYQQKPGKAPKLLIKYASQSLSGVPSRFSGSGSGTEFTLTISSLQPEDFATYYCHQSSRLPFTFGEGTKVDIKRTVAAPSVFIFPPSDEQLKSGTASVVCLLNNFYPREAKVQWKVDNALQSGNSQESVTEQDSKDSTYSLESTLTLSKADYEKHKVYACEVTHQGLSSPVTKSFNRGEC
# heavy 1: not shown
# light 2: B1 light 2
# heavy 2: B1 heavy 2
# B6: iPS:327678 (bispecific antibody, human IgG1, kappa, N297G)
# light 1: not shown
# heavy 1: not shown
# light 2: B1 light 2 with K101Q
# heavy 2: not shown
# B7: iPS:327677 (bispecific antibody, human IgG1, kappa, N297G)
# light 1: not shown
# heavy 1: not shown
# light 2: B1 light 2 with K101Q
# heavy 2: not shown
# B8: iPS:327685 (bispecific antibody, human IgG1, kappa, N297G)
# light 1: not shown
# heavy 1: not shown
# light 2: B1 light 2 with K101Q
# heavy 2: not shown
# B9: iPS:327291 (bispecific antibody, human IgG1, kappa, lambda, N297G)
# light 1: B4 light 1 with E100P
# heavy 1: not shown
# light 2: QSVLTQPPSVSAAPGQKVTISCSGSSSNIGNNYVSWYQQLPGTAPKLLIYDNNKRPSGIPDRFSGSKSGTSTTLGITGLQTGDEADYYCGTWDSRLSAVVFGGGTKLTVLGQPKANPTVTLFPPSSEELQANKATLVCLISDFYPGAVTVAWKADGSPVKAGVETTKPSKQSNNKYAAKSYLSLTPEQWKSHRSYSCQVTHEGSTVEKTVAPTECS
# heavy 2: QVQLVESGGGVVQPGRSLRLSCAASGFTFSSFGMHWVRQAPGKGLEWVAVISFDGSIKYSVDSVKGRFTISRDNSKNTLFLQMNSLRAEDTAVYYCARDRLNYYDSSGYYHYKYYGMAVWGQGTTVTVSSASTKGPSVFPLAPSSKSTSGGTAALGCLVKDYFPEPVTVSWNSGALTSGVHTFPAVLQSSGLYSLESVVTVPSSSLGTQTYICNVNHKPSNTKVDKKVEPKSCDKTHTCPPCPAPELLGGPSVFLFPPKPKDTLMISRTPEVTCVVVDVSHEDPEVKFNWYVDGVEVHNAKTKPCEEQYGSTYRCVSVLTVLHQDWLNGKEYKCKVSNKALPAPIEKTISKAKGQPREPQVYTLPPSRKKMTKNQVSLTCLVKGFYPSDIAVEWESNGQPENNYKTTPPVLKSDGSFFLYSKLTVDKSRWQQGNVFSCSVMHEALHNHYTQKSLSLSPGK
# B10: iPS:327689 (bispecific antibody, human IgG1, kappa, lambda, N297G)
# light 1: not shown
# heavy 1: not shown
# light 2: B9 light 2
# heavy 2: B9 heavy 2 with D105E, K370E
# Molecular target: T1, human PAC1 receptor
# Assay: cell-based or functional assay
row,% inhibition of human PAC1,Binder
1,73%,B1
2,69%,B2
3,12%,B3
4,74%,B4
5,30%,B5
6,43%,B6
7,43%,B7
8,85%,B8
9,89%,B9
10,86%,B10

# Molecular target: human CGRP receptor (human, UniProt Q16602 23-461; O60894 27-148)
# Assay: cell-based or functional assay
# human CGRP receptor, sequence (Q16602 23-461 limits assumed, chain 1 of 2): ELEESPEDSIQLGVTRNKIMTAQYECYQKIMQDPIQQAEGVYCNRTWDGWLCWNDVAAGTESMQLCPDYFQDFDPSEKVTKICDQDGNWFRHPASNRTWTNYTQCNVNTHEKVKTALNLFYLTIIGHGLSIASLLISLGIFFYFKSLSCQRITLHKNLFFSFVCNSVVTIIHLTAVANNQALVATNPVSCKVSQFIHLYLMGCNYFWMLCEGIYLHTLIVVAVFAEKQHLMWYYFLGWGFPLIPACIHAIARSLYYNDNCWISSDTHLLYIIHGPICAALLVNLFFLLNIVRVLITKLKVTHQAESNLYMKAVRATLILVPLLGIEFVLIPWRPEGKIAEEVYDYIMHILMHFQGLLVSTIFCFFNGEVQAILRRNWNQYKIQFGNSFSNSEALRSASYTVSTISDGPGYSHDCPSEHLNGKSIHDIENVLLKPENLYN
# human CGRP receptor, sequence (O60894 27-148 limits assumed, chain 2 of 2): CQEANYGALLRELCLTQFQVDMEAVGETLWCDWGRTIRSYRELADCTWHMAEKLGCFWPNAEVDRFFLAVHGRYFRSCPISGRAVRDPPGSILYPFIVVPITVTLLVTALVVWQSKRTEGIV
row,% inhibition of human CGRPR,Binder
1,72%,B1
2,87%,B2
3,75%,B3
4,71%,B4
5,70%,B5
6,84%,B6
7,81%,B7
8,86%,B8
9,70%,B9
10,78%,B10
